# Source: publication PMC3342439 (Journal of the American Chemical Society, 2012)
# Residue numbers refer to the chain shown, from its start.
# T1: Germicidin synthase (Gcs) R277A (Streptomyces coelicolor, UniProt Q9K464 1-389, R277A)
# T1 sequence (looked up): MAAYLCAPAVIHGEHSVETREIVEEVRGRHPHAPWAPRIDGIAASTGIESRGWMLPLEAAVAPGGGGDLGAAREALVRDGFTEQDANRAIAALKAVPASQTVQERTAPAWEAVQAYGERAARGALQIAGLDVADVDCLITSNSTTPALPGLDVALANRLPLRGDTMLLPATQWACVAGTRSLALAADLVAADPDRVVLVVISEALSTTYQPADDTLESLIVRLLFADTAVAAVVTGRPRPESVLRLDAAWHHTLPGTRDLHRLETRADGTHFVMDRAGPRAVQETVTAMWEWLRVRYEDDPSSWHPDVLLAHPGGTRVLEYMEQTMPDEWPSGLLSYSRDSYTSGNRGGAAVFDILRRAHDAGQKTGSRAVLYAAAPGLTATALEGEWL
# T2: Germicidin synthase (Gcs) R276/317A double mutant (Streptomyces coelicolor, UniProt Q9K464 1-389, R276/317A | R276/317A)
# T2 sequence (looked up): T1 sequence (looked up) with R276A, A277R, R317A
# T3: Germicidin synthase (Gcs), wild type (Streptomyces coelicolor, UniProt Q9K464 1-389)
# T3 sequence (looked up): T1 sequence (looked up) with A277R
# T4: Germicidin synthase (Gcs) R280A (Streptomyces coelicolor, UniProt Q9K464 1-389, R280A)
# T4 sequence (looked up): T1 sequence (looked up) with A277R, R280A
# T5: Germicidin synthase (Gcs) R317A (Streptomyces coelicolor, UniProt Q9K464 1-389, R317A)
# T5 sequence (looked up): T1 sequence (looked up) with A277R, R317A
# T6: Germicidin synthase (Gcs) R276A (Streptomyces coelicolor, UniProt Q9K464 1-389, R276A)
# T6 sequence (looked up): T1 sequence (looked up) with R276A, A277R
# B1: Acyl carrier protein AcpP (Sco2389), biotinylated (natural protein, Streptomyces coelicolor, UniProt P72393 1-82, looked up)
# chain: MAATQEEIVAGLAEIVNEIAGIPVEDVKLDKSFTDDLDVDSLSMVEVVVAAEERFDVKIPDDDVKNLKTVGDATKYILDHQA
# modifications: biotin (EZ-Link NHS-LC-LC-biotin, 5:1 molar ratio of biotin to protein)
# Columns and labels:
# Assay in all cases: BLI
# [1] = target: T1, Germicidin synthase (Gcs) R277A
# [2] = target: T2, Germicidin synthase (Gcs) R276/317A …
# [3] = target: T3, Germicidin synthase (Gcs), wild type
# [4] = target: T4, Germicidin synthase (Gcs) R280A
# [5] = target: T5, Germicidin synthase (Gcs) R317A
# [6] = target: T6, Germicidin synthase (Gcs) R276A
binder,measurement,setting,value
B1,Kd,[1],403 nM
same,koff,[1],0.000128 s⁻¹
same,kon,[1],695 M⁻¹ s⁻¹
same,Kd,[2],192 nM
same,koff,[2],0.00017 s⁻¹
same,kon,[2],892 M⁻¹ s⁻¹
same,Kd,[3],225 nM
same,koff,[3],0.00022 s⁻¹
same,kon,[3],1190 M⁻¹ s⁻¹
same,Kd,[4],184 nM
same,koff,[4],0.000122 s⁻¹
same,kon,[4],769 M⁻¹ s⁻¹
same,Kd,[5],161 nM
same,koff,[5],0.000407 s⁻¹
same,kon,[5],1810 M⁻¹ s⁻¹
same,Kd,[6],185 nM
same,koff,[6],0.000253 s⁻¹
same,kon,[6],628 M⁻¹ s⁻¹
